Data reported in patent US12710427B2, “Anti-human neurotensin receptor 1 antibody and use thereof” (National Health Research Institutes, priority 2020, dated 2026).
Numbering of substitutions follows the chain as printed. Names and notes keep the numbering of the source. “Also recorded” adds a separate entry of the source.

B1: h7C3-5: humanized variant; heavy chain SEQ ID NO: 15, light chain SEQ ID NO: 16 (antibody, V domains shown)
VH: QVQLVQSGAEVKKPGASVKVSCKASGYAFTSSWIHWVRQAPGQRLEWMGQIRPNSGNTYYNEKFKVRVTITRDTSASTAYMELSSLRSEDTAVYYCARYHYGFDYWGQGTLVTVSS
VL: DIVMTQTPLSLSVTPGQPASISCRSSQSIVHSNGNTYLEWYLQKPGQSPQLLIYKVSNRFSGVPDRFSGSGSGTDFTLKISRVEAEDVGVYYCFQGAHLPWTFGGGTKVEIKR
modifications: VH SEQUENCE; VL SEQUENCE
B2: h7C3-5-MMAE: h7C3-5 conjugated with MMAE via cleavable valine-citrulline linker, average 3.8-4 MMAE per antibody (conjugate)
VH: B1 VH
VL: B1 VL
modifications: non-natural residues
notes: h7C3-5 conjugated with MMAE via cleavable valine-citrulline linker, average 3.8-4 MMAE per antibody
B3: h7C3-4: h7C3-3 variant with S9T and D82E in VH and K79T in VL; VH SEQ ID NO: 13, VL SEQ ID NO: 14 (antibody, V domains shown)
VH: QVQLQQPGTVLVRPGASVKLSCKASGYAFTSSWIHWAKQRPGQGLEWIGQIRPNSGNTYYNEKFKVKATLTVDTSSSTAYVELSSLTSEDSAVYYCARYHYGFDYWGQGTLVTVSS
VL: DVLMTQTPLSLPVSLGDQASISCRSSQSIVHSNGNTYLEWYLQKPGQSPKLLIYKVSNRFSGVPDRFSGSGSGTDFTLTISRVEAEDLGVYYCFQGAHLPWTFGGGTKLEIKR
modifications: VH SEQUENCE; VL SEQUENCE
B4: h7C3-3-MMAE: h7C3-3 conjugated with MMAE via cleavable valine-citrulline linker, average 3.8-4 MMAE per antibody (conjugate)
VH: B3 VH with T9S, E82D
VL: B3 VL with T79K
modifications: non-natural residues
notes: h7C3-3 conjugated with MMAE via cleavable valine-citrulline linker, average 3.8-4 MMAE per antibody
B5: h7C3-4-MMAE: h7C3-4 conjugated with MMAE via cleavable valine-citrulline linker, average 3.8-4 MMAE per antibody (conjugate)
VH: B3 VH
VL: B3 VL

What was measured:
A549 = assay: In vitro cell cytotoxicity assay (CellTiter-Glo); assay type: cell-based
Description: (§1) The number of living cells were determined using the CellTiter-Glo® Luminescent Cell Viability Assay (Promega G7571). Cells were plated in 96-well opaque Costar plates (Cat number 136101). In brief, 500-2500 cells in 90 μL media were added to each well in quadruplicate and allowed to adhere for 16 hours. Anti-NTSR1 (dose range: 0-500 nM), anti-NTSR1-MMAE (dose range: 0-500 nM) or Paclitaxel (dose range: 0-100 nM) were added in […] 72-120 hours, medium was removed, and 200 μL of CellTiter-Glo® viability reagent contain culture medium (1:1) was added to each well and placed on an orbital shaker in the dark for 2 minutes. The plate was allowed to sit at RT for 10 minutes before being read on a GloMax® Explorer Multimode Microplate Reader (GM3500).

PC-3 = assay: In vitro cell cytotoxicity assay (CellTiter-Glo); assay type: cell-based
Description: as §1

Isoelectric point (pI) = assay type: physicochemical
[1] = Pharmacokinetics in mice, serum antibody by ELISA; assay type: in vivo
Description: The pharmacokinetics of h7C3-3 and h7C3-4 were evaluated in B6 mice. B6 mice (n=6) were administered 10 mg/kg of test material (based on the antibody component) by tail vein injection. Blood samples were collected from each mouse via the saphenous vein at hour 1, 2, and 6, and at day 1, 2, 3, 4, 7, 9, 11, 14, 16, 18, 21, 23, 25, 35 and 42 post-injection, and serum samples were collected. Plasma concentrations of h7C3-3 and h7C3-4 were measured by IgG (Total) Human ELISA Kit (Invitrogen, BMS2091).

NTSR1 on A549 cells = target: T1, NTSR1 on A549 cells (Homo sapiens, UniProt P30989); assay: Flow cytometry (FACS) binding of anti-NTSR1 antibodies on A549 cells; details: A549 cells, one hour incubation at 4° C.
T1 construct: endogenous in cells; host or cells: A549 (NSCLC)
Description: A total of 1×10^6 cells were reacted with an anti-NTSR1 antibody in 100 μL of FACS buffer (PBS containing 0.5% BSA) for 60 minutes at 4° C. and washed two times to remove excess antibody. Secondary FITC (BD Pharmingen™) conjugated mouse anti-human IgG antibodies were incubated for an additional 60 minutes on ice. Cells were washed again and followed by an additional incubation with 1 ml PBS containing 0.5 mg/mL propidium iodide at 4° C. for 10 minutes. Data were collected on 10,000 living cells by FACS (Bio-Red S3e cell sorter). Fluorescence intensity from channel FL-1 was calculated with Flow Jo flow […] cytometry analysis software.

H1299 = assay: In vitro cell cytotoxicity assay (CellTiter-Glo); assay type: cell-based
Description: as §1

HA22T-Luc = assay: In vitro cell cytotoxicity assay (CellTiter-Glo); assay type: cell-based
Description: as §1

HA22T = assay: In vitro cell cytotoxicity assay (CellTiter-Glo); assay type: cell-based
Description: as §1

Mahlavu = assay: In vitro cell cytotoxicity assay (CellTiter-Glo); assay type: cell-based
Description: as §1

[2] = test system: NTSR1-expressing A549 cancer cells; assay: Internalization of h7C3-3 or h7C3-3-ADC in A549 cells (flow cytometry); assay type: cell-based; details: A549, 1 μg/ml, 37° C. for 90 minutes
Description: A total of 1×10^6 cells were reacted with the indicated antibody or ADC in 100 μL of FACS buffer for 60 minutes at 4° C. and washed to remove excess antibody or ADC. Cells were then transferred to 4° C. or 37° C. for 90 minutes. To determine the relative number of h7C3-3 or h7C3-3-ADC on the cell surface, cells were stained with saturating amounts of FITC (BD Pharmingen™) conjugated mouse anti-human IgG antibodies and incubated for additional 60 minutes on ice. Cells were washed again and followed by an additional incubation with 1 ml PBS containing 0.5 mg/mL propidium iodide at 4° C. for 10 minutes. Data were collected on 10,000 living cells by FACS (Bio-Red S3e cell sorter). Fluorescence intensity from channel FL-1 was calculated with Flow Jo flow cytometry analysis software. Preparation of anti-NTSR1 antibody-drug conjugates (ADCs)

[3] = test system: H1299 lung tumor xenograft; assay: H1299 lung tumor xenograft model; assay type: in vivo, nude mice; details: for body weight: 10 mg/kg, H1299 xenograft mice
From the text: (§2) Immuodeficient male NU/NU nude mice (for H1299 and PC-3 xenograft study) and male Fox Chase SCID® mice (for HA22T-Luc xenograft study) of 7-week-old purchased from BioLASCO were housed in sterilized cages equipped with an air filter and sterile bedding materials at the Laboratory Animal Center of the National Health Research Institutes (NHRI), which is an AAALAC International accredited facility. All mice were fed with sterilized water and chow ad libitum under 12-hour light/12-hour dark cycle throughout the study. On the day of tumor cell inoculation, the number of viable cells was counted by using a hemocytometer with trypan blue staining under a light microscope. Cells were suspended in phenol red-free medium [RPMI1640 (H1299) or DMEM (HA22T-Luc)] or PBS (PC-3) and Matrigel™ (356237, Matrigel® Matrix, Corning, MA, United States) in 1:1 ratio. H1299 (1×10^6 cells), HA22T-Luc (5×10^6 cells) and PC-3 (1×10^6 cells) were implanted subcutaneously into the left flank of either nude or SCID mice using a 1 mL syringe (needle 24G×1 inch). Tumor dimensions were measured with a digital caliper, and the tumor volume in mm^3 was calculated by the formula: Volume=(length×width^∧2)/2. Tumor-bearing mice were grouped (n=5-8 per group) and administered when the average tumor volume was approximately at 200 mm^3. In the 3 individual xenograft studies, human IgG (HU-GF-ED, Lot#120916DG, Molecular Innovations, MI, USA), h7C3-4, h7C3-3-MMAE and h7C3-4-MMAE were diluted in 1× Dulbecco's Phosphate Buffered Saline (02-023-5A, Biological Industries, CT, USA) freshly before dosing at concentration of 2.5 mg/ml. Cisplatin (KEMOPLAT, 1 mg/mL, 87200009AA, Fresenius Kabi, Bad Homburg, Germany) was purchased. In the H1299 xenograft study, tumor-bearing mice were divided into 5 groups (6 mice per group): Human IgG −10 mg/Kg group (negative control), Cisplatin—7 mg/Kg group (positive control), h7C3-3-MMAE —10 mg/Kg group, h7C3-4 −10 mg/Kg group and h7C3-4-MMAE −10 mg/Kg group. The mice were intravenously injected with 4 mL/Kg of dose volume by tail vein twice per week for 3 weeks, except for the Cisplatin group, which was once per week for 3 weeks. In the HA22T-Luc xenograft study, tumor-bearing mice were divided into 3 groups (8 mice per group): Human IgG −10 mg/Kg group (negative control), h7C3-3-MMAE −10 mg/Kg group and h7C3-4-MMAE (ADC) −10 mg/Kg group. The mice were intravenously injected with 4 mL/Kg of dose volume by tail vein twice per week for 2 weeks. In the PC-3 xenograft study, tumor-bearing mice were divided into 2 groups: no treatment group (5 mice) and h7C3-4-MMAE (ADC) −10 mg/Kg (8 mice). The mice in h7C3-4-MMAE −10 mg/Kg group were intravenously injected with 4 mL/Kg of dose volume by tail vein twice per week for 3 weeks. Each treatment was based on the body weight. Body weight and tumor size were measured twice weekly.
Nude mice were subcutaneously inoculated with NTSR1-expressing cells, H1299 (1×10^6 cells per mouse). When the tumors reached a volume of 200 mm^3, the tumor-bearing mice were grouped (n=6) and administered intravenously with human IgG (negative control), h7C3-3-MMAE, h7C3-4 and h7C3-4-MMAE, respectively, at 10 mg/Kg twice weekly for six doses. The Cisplatin (positive control) was administered intravenously at 7 mg/Kg weekly for three doses.

[4] = test system: HA22T-Luc liver tumor xenografts; assay: HA22T-Luc liver tumor xenograft model; assay type: in vivo, SCID mice; details: for tumor volume on day 15 / tumor volume until 36 days: 10 mg/Kg i.v. twice weekly for four doses; for body weight: 10 mg/kg, HA22T-Luc xenograft mice
From the text: as §2
To compare the anti-tumor efficacies of h7C3-3-MMAE and h7C3-4 MMAE, an experiment was performed with 5×10^6 HA22T-luc liver cancer cells inoculated subcutaneously to SCID mice. Tumor-bearing mice were divided into 3 groups (n=8). When the tumors reached a volume of 200 mm^3, 10 mg/Kg of human IgG, h7C3-3-MMAE and h7C3-4 MMAE were administered intravenously, respectively, twice weekly for four doses.

[5] = test system: PC3 prostate tumor xenograft; assay: PC3 prostate tumor xenograft model; assay type: in vivo, nude mice
From the text: as §2, with “The mice were intravenously injected with 4 mL/Kg of dose volume by tail vein twice per week for 3 weeks, except for the Cisplatin group, which was once per week for 3 weeks. In the HA22T-Luc xenograft study, tumor-bearing mice were divided into 3 groups (8 mice per group): Human IgG −10 mg/Kg group (negative control), h7C3-3-MMAE −10 mg/Kg group and h7C3-4-MMAE (ADC) −10 mg/Kg group. The mice were intravenously injected with 4 mL/Kg of dose volume by tail vein twice per week for 2 weeks. In the PC-3 xenograft study, tumor-bearing mice were divided into 2 groups: no treatment group (5 mice) and h7C3-4-MMAE (ADC) −10 mg/Kg (8 mice). The mice in h7C3-4-MMAE −10 mg/Kg group were intravenously injected with 4 mL/Kg of dose volume by tail vein twice per week for 3 weeks. Each treatment was based on the body weight.” left out, “weekly. […]” for “weekly.”

[6] = 10 mg/kg i.v. twice weekly for six doses

T1 sequence (P30989 whole entry): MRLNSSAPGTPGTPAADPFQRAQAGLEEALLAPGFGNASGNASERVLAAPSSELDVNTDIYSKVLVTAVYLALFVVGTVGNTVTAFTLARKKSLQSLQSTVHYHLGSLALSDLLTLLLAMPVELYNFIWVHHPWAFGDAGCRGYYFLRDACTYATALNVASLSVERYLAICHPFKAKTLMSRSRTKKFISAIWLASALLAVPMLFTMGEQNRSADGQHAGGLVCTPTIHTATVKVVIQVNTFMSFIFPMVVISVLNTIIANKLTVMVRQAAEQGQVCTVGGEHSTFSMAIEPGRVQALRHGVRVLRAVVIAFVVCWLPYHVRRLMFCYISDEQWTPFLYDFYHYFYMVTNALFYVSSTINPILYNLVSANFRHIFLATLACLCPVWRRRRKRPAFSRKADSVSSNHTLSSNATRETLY

Row | Molecule | IC50 (A549) [nM] | IC50 (PC-3) [nM] | tumor growth (tumor volume) until/on day 35 [3, 6] | body weight [3] | tumor volume on day 15 [4] | tumor volume until 36 days [4] | body weight [4] | also measured
1 | B1 | > 500 | > 500 |  |  |  |  |  | 
2 | B2 | 33.1 ± 1.72 | 56.5 ± 7.1 |  |  |  |  |  | 
3 | B3 | > 500 | > 500 |  |  |  |  |  | isoelectric points (pI) compared to h7C3-3 (Isoelectric point (pI)): lower; pharmacokinetics (overall) ([1]; 10 mg/kg): better pharmacokinetics; clearance compared with h7C3-3 ([1]; single intravenous administration 10 mg/kg): significantly improved clearance
4 | B4 | 40.9 ± 1.63 | 21.9 ± 2.04 | partial inhibition of the tumor growth | did not show body weight loss | tumor regression | prolonged regression of tumor | did not show body weight loss | binding on cell surface (NTSR1 on A549 cells): have binding efficiency on cell surface; IC50 (H1299): 95.6 ± 2.02 nM; IC50 (HA22T-Luc): 39.4 ± 2.87 nM; IC50 (HA22T): 36.9 ± 3.04 nM; IC50 (Mahlavu): 236 ± 6.9 nM; internalization efficiency [2]: internalized efficiently
5 | B5 | 33.5 ± 3.32 | 55.4 ± 5.17 | Prolonged regression of tumor | did not show body weight loss | tumor regression | prolonged regression of tumor | did not show body weight loss | tumor growth (tumor volume) on day 18 ([3]; 10 mg/kg i.v. twice weekly for six doses, vs human IgG 10 mg/kg and Cisplatin 7 mg/kg): inhibited the tumor growth more potently; antitumor efficacy [5, 6]: highly efficacious; tumor volume until day 60 [5, 6]: prolonged regression of tumor; body weight / general physiological conditions ([5]; 10 mg/kg, PC3 xenograft mice): did not induce any abnormalities; also recorded: did not cause body weight loss
